Measurements published in the supplement of paper PMC7877785.
± gives the uncertainty stated by the source.

Experiment: self-splicing fitness, log relative to wild type (ln ratio); higher = more splicing; Tetrahymena group I intron in knt gene, E. coli kanamycin selection, DiMSum; sequences stand for … in CUCUCU…GGAGGGAAAAGUUAUCAGGCAUGCACCUGGUAGCUAGUCUUUAAACCAAUAGAUUGCAUCGGUUUAAAAGGCAAGACCGUCAAAUUGCGGGAAAGGGGUCAACAGCCGUUCAGUACCAAGUCUCAGGGGAAACUUUGAGAUGGCCUUGCAAAGGGUAUGGUAAUAAGCUGACGGACAUGGUCCUAACCACGCAGCCAAGUCCUAAGUCAACAGAUCUUCUGUUGAUAUGGAUGCAGUUCACAGACUAAAUGUCGGUCGGGGAAGAUGUAUUCUUCUCAUAAGAUAUAGUCGGACCUCUCCUUAAUGGGAGCUAGCGGAUGAAGUGAUGCAACACUGGAGCCGCUGGGAACUAAUUUGUAUGCGAAAGUAUAUUGAUUAGUUUUGGAGUACUCGUGGUCG
How it was run: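 The eight P1ex-region nucleotides of an intron in the knt kanamycin-resistance gene on pET-22b(+) were all randomised and the library put into E. coli BL21(DE3). Six replicate transformations were grown overnight at 37°C or 30°C on LB agar with or without 25 μg/mL kanamycin, together with 100 μg/mL carbenicillin, 50 μM IPTG and 0.2% rhamnose. Colonies were pooled and amplicon-sequenced on an Illumina HiSeq 2500. Fitness from DiMSum is the error-weighted combination of wild-type-normalised replicate fold changes, kanamycin over none.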

| Sequence | self-splicing fitness (ln) (30 °C) | self-splicing fitness (ln) (37 °C) |
| --- | --- | --- |
| UAGAAGCAAUAUUACGUCUU | -1.18 ± 0.072 | -0.782 ± 0.085 |
| UAGAAGCAAUAUUACGUUCU | -1.61 ± 0.11 | -1.08 ± 0.11 |
| UAGAAGCAAUAUUACGUUUA | -1.21 ± 0.11 | -0.575 ± 0.098 |
| UAGCAGCAAUAUUACGAAAG | -2.58 ± 0.21 | -1.73 ± 0.25 |
| UAGCAGCAAUAUUACGAAGA | -1.64 ± 0.14 | -1.29 ± 0.13 |
| UAGCAGCAAUAUUACGACCG | -0.887 ± 0.13 | -0.0437 ± 0.22 |
| UAGCAGCAAUAUUACGACUC | -0.27 ± 0.091 | 0.54 ± 0.12 |
| UAGCAGCAAUAUUACGCCAA | -1.78 ± 0.12 | -0.98 ± 0.1 |
| UAGCAGCAAUAUUACGCCAU | -4.36 ± 0.3 | -2.32 ± 0.14 |
| UAGCAGCAAUAUUACGCGGG | -2.24 ± 0.14 | -2.04 ± 0.2 |
| UAGCAGCAAUAUUACGCUCG | -1 ± 0.12 | 0.142 ± 0.14 |
| UAGCAGCAAUAUUACGCUUA | -0.452 ± 0.084 | -0.689 ± 0.087 |
| UAGCAGCAAUAUUACGGACC | -1.74 ± 0.18 | -1.67 ± 0.29 |
| UAGCAGCAAUAUUACGGAUA | -0.783 ± 0.081 | -0.203 ± 0.1 |
| UAGCAGCAAUAUUACGGAUU | -3.22 ± 0.14 | -1.08 ± 0.13 |
| UAGCAGCAAUAUUACGGCAU | -1.29 ± 0.081 | -0.191 ± 0.089 |
| UAGCAGCAAUAUUACGGGAA | -2.47 ± 0.19 | -1.41 ± 0.18 |
| UAGCAGCAAUAUUACGGGCC | -1.45 ± 0.21 | -2.55 ± 0.36 |
| UAGCAGCAAUAUUACGGGGU | -3.72 ± 0.14 | -2.99 ± 0.16 |
| UAGCAGCAAUAUUACGGGUA | -0.507 ± 0.052 | 0.13 ± 0.057 |
| UAGCAGCAAUAUUACGGUGG | -1.85 ± 0.089 | -1.12 ± 0.1 |
| UAGCAGCAAUAUUACGUAAA | -1.73 ± 0.099 | -1.32 ± 0.13 |
| UAGCAGCAAUAUUACGUAAU | -3.27 ± 0.12 | -0.695 ± 0.089 |
| UAGCAGCAAUAUUACGUGAC | -3.19 ± 0.18 | -3.45 ± 0.28 |
| UAGCAGCAAUAUUACGUGAG | -0.937 ± 0.035 | -0.228 ± 0.056 |

| Sequence | self-splicing fitness (ln) (30 °C) | self-splicing fitness (ln) (37 °C) |
| --- | --- | --- |
| UAGCAGCAAUAUUACGUGGG | -3.61 ± 0.11 | -2.42 ± 0.13 |
| UAGCAGCAAUAUUACGUUAA | -2.13 ± 0.099 | -1.15 ± 0.084 |
| UAGCAGCAAUAUUACGUUAG | -3.08 ± 0.12 | -1.34 ± 0.13 |
| UAGCAGCAAUAUUACGUUUG | -1.29 ± 0.077 | -1.12 ± 0.11 |
| UAGCAGCAAUAUUACGUUUU | -2.6 ± 0.12 | -2.31 ± 0.19 |
| UAGGAGCAAUAUUACGAGAG | -3.02 ± 0.21 |  |
| UAGGAGCAAUAUUACGAUAU | -3.96 ± 0.33 | -2.46 ± 0.28 |
| UAGGAGCAAUAUUACGCAAU |  | -1.73 ± 0.38 |
| UAGGAGCAAUAUUACGCCAU | -3.74 ± 0.43 | -2.72 ± 0.48 |
| UAGGAGCAAUAUUACGCGGC | -2.42 ± 0.39 |  |
| UAGGAGCAAUAUUACGCUAA |  | -1.57 ± 0.41 |
| UAGGAGCAAUAUUACGCUCA | -1.55 ± 0.19 | -1.37 ± 0.16 |
| UAGGAGCAAUAUUACGCUUU | -2.54 ± 0.32 | -1.66 ± 0.29 |
| UAGGAGCAAUAUUACGGACU | -3.22 ± 0.25 | -2.41 ± 0.22 |
| UAGGAGCAAUAUUACGGAGG | -4.35 ± 0.42 | -2.73 ± 0.32 |
| UAGGAGCAAUAUUACGGUUG | -3.11 ± 0.36 | -2.4 ± 0.24 |
| UAGGAGCAAUAUUACGUACA | -2.47 ± 0.22 | -0.906 ± 0.18 |
| UAGGAGCAAUAUUACGUGGG | -3.17 ± 0.24 | -3.32 ± 0.38 |
| UAGGAGCAAUAUUACGUUAG | -3.8 ± 0.3 | -2.71 ± 0.49 |
| UAGGAGCAAUAUUACGUUCA | -2.05 ± 0.16 | -1.02 ± 0.19 |
| UAGUAGCAAUAUUACGAACG | -0.961 ± 0.13 | -0.0932 ± 0.15 |
| UAGUAGCAAUAUUACGACGC | -3.61 ± 0.25 | -0.996 ± 0.21 |
| UAGUAGCAAUAUUACGACUA | -0.0384 ± 0.12 | 0.251 ± 0.12 |
| UAGUAGCAAUAUUACGAGUA | -1.44 ± 0.11 | -0.61 ± 0.084 |
| UAGUAGCAAUAUUACGAUAC | -2.73 ± 0.44 |  |

| Sequence | self-splicing fitness (ln) (30 °C) | self-splicing fitness (ln) (37 °C) |
| --- | --- | --- |
| UAGUAGCAAUAUUACGAUCA | -0.544 ± 0.088 | 0.306 ± 0.12 |
| UAGUAGCAAUAUUACGAUGA | -1.59 ± 0.26 | -1.7 ± 0.28 |
| UAGUAGCAAUAUUACGCCGU | -2.58 ± 0.24 | -2.23 ± 0.3 |
| UAGUAGCAAUAUUACGCUAA | -2.12 ± 0.28 | -1.3 ± 0.15 |
| UAGUAGCAAUAUUACGCUUC |  | -1.91 ± 0.37 |
| UAGUAGCAAUAUUACGGCAA | -0.858 ± 0.15 | -1.04 ± 0.16 |
| UAGUAGCAAUAUUACGGGUG | -0.96 ± 0.071 | -0.773 ± 0.079 |
| UAGUAGCAAUAUUACGGUAG | -2.56 ± 0.18 | -1.73 ± 0.22 |
| UAGUAGCAAUAUUACGGUCA | -0.074 ± 0.16 | -0.852 ± 0.18 |
| UAGUAGCAAUAUUACGUAAA | -3.01 ± 0.21 | -1.03 ± 0.15 |
| UAGUAGCAAUAUUACGUAAC | -3.54 ± 0.15 | -1.89 ± 0.15 |
| UAGUAGCAAUAUUACGUACG | -1.24 ± 0.16 | 0.127 ± 0.16 |
| UAGUAGCAAUAUUACGUACU | -0.816 ± 0.12 | -0.109 ± 0.12 |
| UAGUAGCAAUAUUACGUCGG | -2.04 ± 0.08 | -1.53 ± 0.12 |
| UAGUAGCAAUAUUACGUGCA | -0.861 ± 0.12 | -0.189 ± 0.11 |
| UAGUAGCAAUAUUACGUGUC |  | -2.22 ± 0.34 |
| UAUAAGCAAUAUUACGAAAA | -1.72 ± 0.31 | -1.27 ± 0.31 |
| UAUAAGCAAUAUUACGACUU | -0.386 ± 0.13 | -0.681 ± 0.13 |
| UAUAAGCAAUAUUACGAGGC |  | -2.5 ± 0.39 |
| UAUAAGCAAUAUUACGAUAG | -1.4 ± 0.16 | -0.486 ± 0.17 |
| UAUAAGCAAUAUUACGAUGU | -2.49 ± 0.11 | -1.71 ± 0.12 |
| UAUAAGCAAUAUUACGCCCU | -1.15 ± 0.16 | 0.38 ± 0.16 |
| UAUAAGCAAUAUUACGCUCG | -0.59 ± 0.082 | -0.442 ± 0.11 |
| UAUAAGCAAUAUUACGGACC | -2.68 ± 0.16 | -2.07 ± 0.22 |
| UAUAAGCAAUAUUACGGACG | 0.119 ± 0.088 | 0.194 ± 0.11 |

| Sequence | self-splicing fitness (ln) (30 °C) | self-splicing fitness (ln) (37 °C) |
| --- | --- | --- |
| UAUAAGCAAUAUUACGGGGA | -1.81 ± 0.19 | -1.91 ± 0.23 |
| UAUAAGCAAUAUUACGUAAG | -2.45 ± 0.15 | -1.08 ± 0.16 |
| UAUAAGCAAUAUUACGUCGU | -2.37 ± 0.12 | -1.69 ± 0.17 |
| UAUAAGCAAUAUUACGUCUG | -0.517 ± 0.081 | 0.316 ± 0.098 |
| UAUAAGCAAUAUUACGUCUU | -1 ± 0.085 | -0.554 ± 0.1 |
| UAUAAGCAAUAUUACGUUGA | -3.52 ± 0.22 | -1.25 ± 0.12 |
| UAUAAGCAAUAUUACGUUUA | -1.03 ± 0.1 | -0.548 ± 0.11 |
| UAUAAGCAAUAUUACGUUUU | -3.44 ± 0.23 | -1.85 ± 0.15 |
| UAUCAGCAAUAUUACGAAUU | -0.95 ± 0.076 | 0.113 ± 0.09 |
| UAUCAGCAAUAUUACGAGCC | -3.24 ± 0.34 | -2.33 ± 0.3 |
| UAUCAGCAAUAUUACGAGGA | -0.877 ± 0.13 | -1.39 ± 0.14 |
| UAUCAGCAAUAUUACGAGGU | -2.73 ± 0.28 | -3.78 ± 0.37 |
| UAUCAGCAAUAUUACGAGUA | -0.337 ± 0.079 | -0.301 ± 0.088 |
| UAUCAGCAAUAUUACGAUGG | -0.913 ± 0.062 | 0.0535 ± 0.083 |
| UAUCAGCAAUAUUACGCAAC | -2.71 ± 0.2 | -1.52 ± 0.17 |
| UAUCAGCAAUAUUACGCGCC | -1.34 ± 0.18 | -0.193 ± 0.26 |
| UAUCAGCAAUAUUACGCGCU | -2.73 ± 0.21 | -1.76 ± 0.23 |
| UAUCAGCAAUAUUACGCGGU | -2.68 ± 0.13 | -2.97 ± 0.27 |
| UAUCAGCAAUAUUACGCUCA | -0.0488 ± 0.092 | 0.0773 ± 0.11 |
| UAUCAGCAAUAUUACGGACG | -0.108 ± 0.091 | 0.00709 ± 0.11 |
| UAUCAGCAAUAUUACGGAGC | -3.14 ± 0.17 | -3.71 ± 0.19 |
| UAUCAGCAAUAUUACGGCAA | -0.306 ± 0.12 | 0.808 ± 0.15 |
